The values that follow come from patent US20210163580A1 (NATIONAL HEALTH RESEARCH INSTITUTES, published 2021).

Broadly, the Kd is the free concentration of one partner at which half of the binding sites on the other are occupied at equilibrium, for simple one-to-one binding. As a reminder, the koff is the rate constant with which the complex falls apart. The term kon denotes the rate constant with which the complex forms.

Positions of bridges follow the written chain, without caps; N, C: chain ends. No end group written: not given here.

For assay [1], the target named is T1, recombinant human RSPO3 protein (human, UniProt Q9BXY4 22-272).
T1 sequence (looked up): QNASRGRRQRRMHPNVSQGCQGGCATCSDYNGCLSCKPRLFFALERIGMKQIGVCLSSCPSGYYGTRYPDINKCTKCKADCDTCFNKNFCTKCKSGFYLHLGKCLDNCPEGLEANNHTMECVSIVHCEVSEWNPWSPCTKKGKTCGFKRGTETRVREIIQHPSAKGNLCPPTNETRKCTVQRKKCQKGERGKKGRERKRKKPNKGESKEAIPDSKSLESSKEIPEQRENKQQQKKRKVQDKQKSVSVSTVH
In words: cell-based or functional assay.

Assay [2] deals with T1, recombinant human RSPO3 protein. Kind of assay: SPR (Biacore T200); hRSPO3 immobilised on CM5 chip, antibody injected, single-cycle, 1:1 model. The protocol:
FIG. 7 is a graph showing use of Biacore to measure the binding kinetics of α-RSPO3 Abs-antigen interaction. The binding sensorgrams were generated using a Biacore T200 and then fitted to a simple 1:1 interaction model. […] The association was monitored for 2 min, and the final dissociation time was 15 min hRSPO3 was immobilized on a CMS chip at 27.5 RU.
The binding kinetics between α-RSPO3 Abs and recombinant human RSPO3 protein (hRSPO3) were performed at 25° C. using a Biacore T200 biosensor equipped with a CMS Series S Sensor Chip (GE Healthcare). […] Obtained sensorgrams were corrected by double subtracting the signal obtained on a reference surface and the signal of the running buffer. Sensograms were fit globally with BIAcore T200 evaluation software 3.0 using 1:1 binding model to yield affinity constants (KD values) for α-RSPO3 Abs. Replicate measurements were made in separate experiments, using independently prepared α-RSPO3 Abs dilution series and huRSPO3-coated chip surfaces.
A general note: Surface plasmon resonance follows binding to a sensor surface in real time, without labels.

The next assay addresses T2, peptide B-44-53 (Homo sapiens, UniProt Q9BXY4, disulfide (positions not given here); also: biotinylated, intrachain disulfide, Cys pairing not given here).
T2 construct: synthetic cyclic peptide, a.a; also called cyclic peptide a.a; 44-53 derived from hRSPO3
T2 peptide (looked up): CATCSDYNGC
Kind of assay: ELISA: biotinylated cyclic peptide (1 µg/ml) on NeutrAvidin plate, hB1, anti-human IgG-Fc-HRP, OD 450 [B]. On the procedure: (§1) FIG. 9 is a set of schematics and graphs showing epitope studies of several α-RSPO3 antibodies. […] Streptavidin-HRP was then added for detection of the bound biotinylated antibody. (B) The biotinylated cyclic peptides, at 1 μg/ml, and biotinylated recombinant human RSPO3, at 100 ng/ml, were applied to NeutrAvidin pre-coated plates. […] To detect bound anti-RSPO3 antibodies, Goat anti-human IgG-Fc-HPR (Chemicon) was then applied to the plates.
(§2) Further conformation epitope studies of α-RSPO3 Abs were performed using recombinant RSPO3 truncated proteins and cyclic peptides scanning to narrow down their target sequences. […] RSPO3 contains a furin-like cysteine-rich region. Until now, the 3D structure of RSPO3 has not been reported. Additionally, four cyclic peptides (a.a. 40-47, 44-53, 56-75 and 79-94) were designed to measure the binding of α-RSPO3 mAbs to the cyclic peptides derived from hRSPO3.

Another assay addresses T3, peptide B-40-47 (Homo sapiens, UniProt Q9BXY4, disulfide (positions not given here); also: biotinylated, intrachain disulfide, Cys pairing not given here).
T3 construct: synthetic cyclic peptide, a.a; also called cyclic peptide a.a; 40-47 derived from hRSPO3
T3 peptide (looked up): CQGGCATC
Described as above. On the procedure:
as §1, §2

A further assay deals with T4, peptide B-79-94 (Homo sapiens, UniProt Q9BXY4, disulfide 1-16 (inferred); also: biotinylated).
T4 construct: synthetic cyclic peptide, a.a; also called cyclic peptide a.a; 79-94 derived from hRSPO3
T4 peptide (looked up): CPSGYYGTRYPDINKC
Described as above. The protocol:
as §1, §2

Assay [3] has as its target T1, recombinant human RSPO3 protein. In words: competition ELISA on coated hRSPO3; blocked ligand: biotinylated LGR5 (22-560)-Fc, streptavidin-HRP [A]. On the procedure:
After removing extra detection antibodies by washing the plates with 1× PBST, a TMB substrate solution was added to each well for 10 minutes.
Recombinant human RSPO3 (Peprotech) at 500 ng/ml was coated on the plates.
Background: ELISA stands for enzyme-linked immunosorbent assay.

B1: humanized anti-RSPO3 antibody hB1 (antibody, V domains shown)
VH: QIQLQESGPGLVKPSESLSLTCSVTGYSITSGYYWNWIRQFPGNGLEWMGYISYDGTNNYNPSLKDRISITRDTSKNQFFLKLNSVTAADTATYYCSVLLIQYFNIWGKGTTVTVSS
VL: DIQMTQSPSSLSASVGERVTITCRTSESVNNFLAWFHQKPGKSPKLLVYHAKTLADGVSSRFSGSGSGTQYSLKINSLQPEDFGNYYCQHFWSIPWTFGGGTKLEIKR
notes: Humanized from murine B1
As for B1, the “IC50 in the WNT reporter assay (MDA-MB436 TCF/LEF-Luc, Wnt3a plus hRSPO3)” value in assay [1] amounted to 58 nM. In assay [2], the Kd is 0.0268 nM, the off-rate (koff) worked out at 3.4e-05 s⁻¹ and the on-rate constant (kon) was 1.7e+06 M⁻¹ s⁻¹. In the assay with peptide B-44-53, the binding result is on record as “no binding”. In addition, in the assay with peptide B-40-47, the binding result is listed as “no binding”. Moreover, the binding result with peptide B-79-94 is given as “no binding”. In assay [3], the “IC50 (read off the curve)” value was about 0.9 µg/mL.
